The experiment has as its target human Robo-1 (human) (UniProt Q9Y6N7). Put plainly: cell-based or functional assay.

Experimental findings from US20110305732A1 are described below.

Chain of UniProt Q9Y6N7 (Q9Y6N7 26-1651): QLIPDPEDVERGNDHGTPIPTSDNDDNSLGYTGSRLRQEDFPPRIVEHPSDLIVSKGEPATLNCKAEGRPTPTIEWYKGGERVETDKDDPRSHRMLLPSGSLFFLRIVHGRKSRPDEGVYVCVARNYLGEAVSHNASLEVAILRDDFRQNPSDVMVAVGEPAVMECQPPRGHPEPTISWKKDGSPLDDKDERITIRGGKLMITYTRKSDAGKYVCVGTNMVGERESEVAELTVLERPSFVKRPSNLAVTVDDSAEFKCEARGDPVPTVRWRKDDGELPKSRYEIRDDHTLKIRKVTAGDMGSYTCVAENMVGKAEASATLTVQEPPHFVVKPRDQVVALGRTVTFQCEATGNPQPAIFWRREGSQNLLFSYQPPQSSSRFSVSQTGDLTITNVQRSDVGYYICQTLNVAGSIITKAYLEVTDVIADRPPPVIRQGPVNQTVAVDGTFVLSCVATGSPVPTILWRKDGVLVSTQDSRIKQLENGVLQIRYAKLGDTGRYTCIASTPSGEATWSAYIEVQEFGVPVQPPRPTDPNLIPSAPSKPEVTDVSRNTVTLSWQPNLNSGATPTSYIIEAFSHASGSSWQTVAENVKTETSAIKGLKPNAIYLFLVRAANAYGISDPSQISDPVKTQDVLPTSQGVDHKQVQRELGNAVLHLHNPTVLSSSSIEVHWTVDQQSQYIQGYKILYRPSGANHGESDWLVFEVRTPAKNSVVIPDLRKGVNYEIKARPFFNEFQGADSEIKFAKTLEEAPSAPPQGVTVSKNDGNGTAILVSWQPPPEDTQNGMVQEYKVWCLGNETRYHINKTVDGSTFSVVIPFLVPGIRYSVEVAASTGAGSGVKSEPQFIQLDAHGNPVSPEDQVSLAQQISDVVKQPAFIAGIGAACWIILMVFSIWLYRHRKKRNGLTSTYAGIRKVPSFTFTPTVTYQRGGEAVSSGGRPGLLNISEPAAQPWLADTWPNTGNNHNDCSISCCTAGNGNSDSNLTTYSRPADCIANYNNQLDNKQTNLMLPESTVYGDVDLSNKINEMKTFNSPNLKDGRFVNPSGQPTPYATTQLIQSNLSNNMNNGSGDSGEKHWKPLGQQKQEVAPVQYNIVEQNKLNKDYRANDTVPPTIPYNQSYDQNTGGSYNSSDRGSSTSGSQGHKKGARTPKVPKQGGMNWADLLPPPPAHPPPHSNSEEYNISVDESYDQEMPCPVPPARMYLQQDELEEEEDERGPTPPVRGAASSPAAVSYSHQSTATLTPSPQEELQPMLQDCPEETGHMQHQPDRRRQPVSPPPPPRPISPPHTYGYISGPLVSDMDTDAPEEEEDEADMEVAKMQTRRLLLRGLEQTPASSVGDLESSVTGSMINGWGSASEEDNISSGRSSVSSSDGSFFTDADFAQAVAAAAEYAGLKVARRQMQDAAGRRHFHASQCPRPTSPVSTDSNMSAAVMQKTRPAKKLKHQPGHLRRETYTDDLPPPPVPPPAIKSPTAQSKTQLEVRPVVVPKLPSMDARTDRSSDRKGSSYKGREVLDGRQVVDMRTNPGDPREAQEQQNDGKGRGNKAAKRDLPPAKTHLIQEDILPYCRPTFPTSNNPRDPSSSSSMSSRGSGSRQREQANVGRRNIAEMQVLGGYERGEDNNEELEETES

B1: full length human Slit2 (ligand, UniProt O94813-3 31-1521, looked up)
chain: QCSCSGSTVDCHGLALRSVPRNIPRNTERLDLNGNNITRITKTDFAGLRHLRVLQLMENKISTIERGAFQDLKELERLRLNRNHLQLFPELLFLGTAKLYRLDLSENQIQAIPRKAFRGAVDIKNLQLDYNQISCIEDGAFRALRDLEVLTLNNNNITRLSVASFNHMPKLRTFRLHSNNLYCDCHLAWLSDWLRQRPRVGLYTQCMGPSHLRGHNVAEVQKREFVCSGHQSFMAPSCSVLHCPAACTCSNNIVDCRGKGLTEIPTNLPETITEIRLEQNTIKVIPPGAFSPYKKLRRIDLSNNQISELAPDAFQGLRSLNSLVLYGNKITELPKSLFEGLFSLQLLLLNANKINCLRVDAFQDLHNLNLLSLYDNKLQTIAKGTFSPLRAIQTMHLAQNPFICDCHLKWLADYLHTNPIETSGARCTSPRRLANKRIGQIKSKKFRCSGTEDYRSKLSGDCFADLACPEKCRCEGTTVDCSNQKLNKIPEHIPQYTAELRLNNNEFTVLEATGIFKKLPQLRKINFSNNKITDIEEGAFEGASGVNEILLTSNRLENVQHKMFKGLESLKTLMLRSNRITCVGNDSFIGLSSVRLLSLYDNQITTVAPGAFDTLHSLSTLNLLANPFNCNCYLAWLGEWLRKKRIVTGNPRCQKPYFLKEIPIQDVAIQDFTCDDGNDDNSCSPLSRCPTECTCLDTVVRCSNKGLKVLPKGIPRDVTELYLDGNQFTLVPKELSNYKHLTLIDLSNNRISTLSNQSFSNMTQLLTLILSYNRLRCIPPRTFDGLKSLRLLSLHGNDISVVPEGAFNDLSALSHLAIGANPLYCDCNMQWLSDWVKSEYKEPGIARCAGPGEMADKLLLTTPSKKFTCQGPVDVNILAKCNPCLSNPCKNDGTCNSDPVDFYRCTCPYGFKGQDCDVPIHACISNPCKHGGTCHLKEGEEDGFWCICADGFEGENCEVNVDDCEDNDCENNSTCVDGINNYTCLCPPEYTGELCEEKLDFCAQDLNPCQHDSKCILTPKGFKCDCTPGYVGEHCDIDFDDCQDNKCKNGAHCTDAVNGYTCICPEGYSGLFCEFSPPMVLPRTSPCDNFDCQNGAQCIVRINEPICQCLPGYQGEKCEKLVSVNFINKESYLQIPSAKVRPQTNITLQIATDEDSGILLYKGDKDHIAVELYRGRVRASYDTGSHPASAIYSVETINDGNFHIVELLALDQSLSLSVDGGNPKIITNLSKQSTLNFDSPLYVGGMPGKSNVASLRQAPGQNGTSFHGCIRNLYINSELQDFQKVPMQTGILPGCEPCHKKVCAHGTCQPSSQAGFTCECQEGWMGPLCDQRTNDPCLGNKCVHGTCLPINAFSYSCKCLEGHGGVLCDEEEDLFNPCQAIKCKHGKCRLSGLGQPYCECSSGYTGDSCDREISCRGERIRDYYQKQQGYAACQTTKKVSRLECRGGCAGGQCCGPLRSKRRKYSFECTDGSSFVDEVEKVVKCGCTRCVS
On to B1, for which the average platelet surface area coverage on collagen at shear flow rate 1900 sec^-1 is 3.1%, the average surface area covered by platelets on collagen at shear flow rate 1000 sec^-1 was 1.3%, the mean platelet surface area on fibrinogen after 30 min (platelet spreading) stood at 20.9 µm^2 and the mean surface area of platelets on collagen after 30 min (platelet spreading) came to 13.5 µm^2. The molecule also returned a mean surface area of platelets on fibronectin after 30 min (platelet spreading) of 19.3 µm^2, a percentage of platelets expressing cell-surface CD62P after ADP stimulation of 13.2% and a phosphorylation of Akt during platelet spreading on fibrinogen (fold over basal 1.0) (fold over basal) of 2.8.
